Data on 6 molecules can be found in patent publication US20150267232A1, “IN VIVO AND IN VITRO CARBENE INSERTION AND NITRENE TRANSFER REACTIONS CATALYZED BY HEME ENZYMES” (California Institute of Technology, priority 2012, published 2015).

Substitutions are numbered along the chain they refer to. Numbers in names are those of the source.

A short description of series [1]: N—H insertion, aniline with ethyl 2-diazopropanoate, whole cells. It counts as cell-based. As to conditions: whole cells expressing enzyme at 2.5 μM. As for the experimental part:
(§1) The reactions shown in FIG. 37B were carried out with 10 μM catalyst loading, 20 mM aniline, 10 mM Na2S2O4 and 10 mM ethyl 2-diazopropanoate as described above. For the final entry in FIG. 37B, whole cells expressing BM3-CIS-T438S at 2.5 μM were used. See, U.S. Provisional Application No. 61/711,640 for the procedure for catalysis with whole cells.

Series [2] can be described thus: N—H insertion, aniline with ethyl 2-diazopropanoate. It counts as biochemical. As to conditions: 10 μM catalyst, 20 mM aniline, 10 mM Na2S2O4, 10 mM ethyl 2-diazopropanoate. Here is the method:
The reactions shown in FIG. 37A were carried out with protein (20 μM), ethyl diazo acetate (8.5 mM), aniline (20 mM) and Na2S2O4 (10 mM) in phosphate buffer (pH 8) and allowed to shake at room temperature for 12 h. Yields are reported in parenthesis and TTN are presented in italics. Yields were determined by GC calibrated for each product. An isolated yield of 65% for compound 4.3 was determined for the milligram scale reaction run as follows: 25 mM EDA, 25 mM aniline, 25 μM protein, and 25 mM Na2S2O4. The reaction producing compounds 4.5 and 4.10 were carried out with protein (20 μM), ethyl diazo acetate (10.0 mM), aniline (20 mM) and Na2S2O4 (10 mM).
While substituted diazo compounds can also be used for insertion, the yield from N—H insertion of ethyl 2-diazopropanoate into aniline is only 26% (product 4.5). To improve efficiency of this reaction, we examined the reaction of ethyl 2-diazopropanoate with a variety of axial mutants. In particular, the axial mutant WT-AxA provided the desired product in 83% yield, compared to 8% yield and 1.7% yield with axial mutant WT-AxS and WT-BM3 heme domain, respectively (FIG. 37B).
as §1

Series [3] can be described thus: Intramolecular carbene C—H insertion, substrate 4.1a. It counts as biochemical. The following applies: for Yield %: 10 mM 4.1a, 10 uM P450, 10 mM Na2S2O4, product 4.2a. As for the experimental part: Yield of product 4.22b was established after calibration with phenethyl alcohol as an internal standard. The reaction is not catalyzed by the WT-BM3 heme domain or hemin at 5% catalyst loading.
A representative procedure for P450-catalyzed C—H insertion is as follows: A vial containing WT-AxD (20 μL, 200 μM) was sealed with a teflon cap and the headspace of this vial was purged with argon for 5 min. Concurrently, a solution of sodium dithionite (11 mM in phosphate buffer pH=8) was degassed for a minimum of 5 min and 360 μL of this solution was transferred to the vial containing protein. The gas lines were disconnected from the vials. The substrate 4.1a or 4.1b was then added as a solution (20 μL, 200 mM). Final concentrations of all components were: 10 uM enzyme, 10 mM substrate, and 10 mM dithionite. […]
The mixture was extracted with 1 mL cyclohexane and analyzed by GC-MS or GC. GC-MS was performed on a Shimadzu TQ8030 GC-MS with ion count detector and J&W HP-5 column (30 m×0.32 mm, 0.25 μm film) using the following method: 90° C. (hold 2 min), 90-190° C. (20° C./min), and 190-230 (40° C./min)

B1: BM3-CIS-T438S: BM3-CIS + T438S (protein, listed as Bacillus megaterium)
chain: TIKEMPQPKTFGELKNLPLLNTDKPVQALMKIADELGEIFKFEAPGRVTRYLSSQRLIKEACDESRFDKNLSQALKFARDFAGDGLVTSWTHEKNWKKAHNILLPSFSQQAMKGYHAMMVDIAVQLVQKWERLNADEHIEVSEDMTRLTLDTIGLCGFNYRFNSFYRDQPHPFIISMVRALDEVMNKLQRANPDDPAYDENKRQFQEDIKVMNDLVDKIIADRKARGEQSDDLLTQMLNGKDPETGEPLDDGNIRYQIITFLIAGHEATSGLLSFALYFLVKNPHVLQKVAEEAARVLVDPVPSYKQVKQLKYVGMVLNEALRLWPTAPAFSLYAKEDTVLGGEYPLEKGDEVMVLIPQLHRDKTVWGDDVEEFRPERFENPSAIPQHAFKPFGNGQRACIGQQFALHEATLVLGMMLKHFDFEDHTNYELDIKETLSLKPKGFVVKAKSKKIPLGGIPSPSTEQSAKKVRKKAENAHNTPLLVLYGSNMGTAEGTARDLADIAMSKGFAPQVATLDSHAGNLPREGAVLIVTASYNGHPPDNAKQFVDWLDQASADEVKGVRYSVFGCGDKNWATTYQKVPAFIDETLAAKGAENIADRGEADASDDFEGTYEEWREHMWSDVAAYFNLDIENSEDNKSTLSLQFVDSAADMPLAKMHGAFSTNVVASKELQQPGSARSTRHLEIELPKEASYQEGDHLGVIPRNYEGIVNRVTARFGLDASQQIRLEAEEEKLAHLPLAKTVSVEELLQYVELQDPVTRTQLRAMAAKTVCPPHKVELEALLEKQAYKEQVLAKRLTMLELLEKYPACEMKFSEFIALLPSIRPRYYSISSSPRVDEKQASITVSVVSGEAWSGYGEYKGIASNYLAELQEGDTITCFISTPQSEFTLPKDPETPLIMVGPGTGVAPFRGFVQARKQLKEQGQSLGEAHLYFGCRSPHEDYLYQEELENAQSEGIITLHTAFSRMPNQPKTYVQHVMEQDGKKLIELLDQGAHFYICGDGSQMAPAVEATLMKSYADVHQVSEADARLWLQQLEEKGRYAKDVWAG
modifications: cytochrome P450NADPH-P-450 reductase precursor, cytochrome P450 (BM3), CYP102A1
With B1, in series [1], the enantioselectivity came out at 7% and the “yield of 4.5” value is 17%.

B2: WT-BM3 heme: WT heme domain (amino acids 1-463 of SEQ ID NO: 1) (protein, listed as Bacillus megaterium)
chain: TIKEMPQPKTFGELKNLPLLNTDKPVQALMKIADELGEIFKFEAPGRVTRYLSSQRLIKEACDESRFDKNLSQALKFVRDFAGDGLFTSWTHEKNWKKAHNILLPSFSQQAMKGYHAMMVDIAVQLVQKWERLNADEHIEVPEDMTRLTLDTIGLCGFNYRFNSFYRDQPHPFITSMVRALDEAMNKLQRANPDDPAYDENKRQFQEDIKVMNDLVDKIIADRKASGEQSDDLLTHMLNGKDPETGEPLDDENIRYQIITFLIAGHETTSGLLSFALYFLVKNPHVLQKAAEEAARVLVDPVPSYKQVKQLKYVGMVLNEALRLWPTAPAFSLYAKEDTVLGGEYPLEKGDELMVLIPQLHRDKTIWGDDVEEFRPERFENPSAIPQHAFKPFGNGQRACIGQQFALHEATLVLGMMLKHFDFEDHTNYELDIKETLTLKPEGFVVKAKSKKIPLGGIPSPST
modifications: cytochrome P450NADPH-P-450 reductase precursor, cytochrome P450 (BM3), CYP102A1
B2: in series [2], the “yield of product 4.5” value turned out to be 1.7%. In series [3], the Yield % amounted to 0%. Besides, the “lactone formation via C—H bond insertion” value in series [3] (substrates 4.1a and 4.1b, 10 μM variant or hemin at 5% catalyst loading, 16 h) is “not catalyzed”.

B3: WT-AxA: WT heme domain + C400A (protein)
chain: B2 chain with C400A, T438S, E442K
modifications: synthetic cytochrome P450-BM3 variant WT-AxA (heme)
notes: WT heme domain + C400A
B3: the “yield of product 4.5” value in series [2] is 83%. The Yield % entry in series [3] is on record as “trace”.

B4: WT-AxY: WT heme domain + C400Y (protein, listed as Bacillus megaterium)
chain: B2 chain with C400Y
modifications: cytochrome P450NADPH-P-450 reductase precursor, cytochrome P450 (BM3), CYP102A1
notes: WT heme domain + C400Y
With B4, the Yield % result in series [3] is reported as “trace”.

B5: WT-AxN: WT heme domain + C400N (protein)
chain: B2 chain with C400N, T438S, E442K
modifications: synthetic cytochrome P450-BM3 variant WT-AxN (heme)
notes: WT heme domain + C400N
On to B5, for which, in series [3], the Yield % is recorded as 0%.

B6: WT-AxS: WT heme domain + C400S (protein, listed as Bacillus megaterium)
chain: B2 chain with C400S
modifications: cytochrome P450NADPH-P-450 reductase precursor, cytochrome P450 (BM3), CYP102A1
notes: WT heme domain + C400S
Take B6: the “yield of product 4.5” value in series [2] came out at 8%.
